Measurements reported in publication PMC7367873, “Dissecting the sequence determinants for dephosphorylation by the catalytic subunits of phosphatases PP1 and PP2A” (Nature Communications, 2020).

Columns and labels:
[1] = test system: GFP-14-3-3β and its binding proteins; test: GFP-14-3-3β co-IP with LC-MS/MS label-free quantification, untreated versus PP1c-treated; set-up: species or system human; conditions: pairwise comparison PP1 vs untreated, 3 replicates each
GFP-14-3-3β = GFP-14-3-3β co-IP with LC-MS/MS, untreated GFP-14-3-3β versus GFP control (14-3-3 interactome); type: binding, human; conditions: 3 replicates each
[2] = log2 difference, label-free quantification
[3] = log2 difference, pairwise comparison untreated vs GFP, label-free quantification

Row | Difference (log2), PP1 vs untreated ([1]; student's t-test, LC-MS/MS label-free quantification) | Difference (log2), PP1 vs untreated [1, 2] | Molecule | Difference (log2), untreated vs GFP (GFP-14-3-3β; pairwise comparison untreated GFP-14-3-3β vs GFP, student's t-test, LC-MS/MS label-free quantification) | Difference (log2), untreated vs GFP (GFP-14-3-3β; [3])
1 | -2.1937 log2 | – | HDAC4 (protein, UniProt P56524 1-1084, looked up) Histone deacetylase 4: MSSQSHPDGLSGRDQPVELLNPARVNHMPSTVDVATALPLQVAPSAVPMDLRLDHQFSLPVAEPALREQQLQQELLALKQKQQIQRQILIAEFQRQHEQLSRQHEAQLHEHIKQQQEMLAMKHQQELLEHQRKLERHRQEQELEKQHREQKLQQLKNKEKGKESAVASTEVKMKLQEFVLNKKKALAHRNLNHCISSDPRYWYGKTQHSSLDQSSPPQSGVSTSYNHPVLGMYDAKDDFPLRKTASEPNLKLRSRLKQKVAERRSSPLLRRKDGPVVTALKKRPLDVTDSACSSAPGSGPSSPNNSSGSVSAENGIAPAVPSIPAETSLAHRLVAREGSAAPLPLYTSPSLPNITLGLPATGPSAGTAGQQDAERLTLPALQQRLSLFPGTHLTPYLSTSPLERDGGAAHSPLLQHMVLLEQPPAQAPLVTGLGALPLHAQSLVGADRVSPSIHKLRQHRPLGRTQSAPLPQNAQALQHLVIQQQHQQFLEKHKQQFQQQQLQMNKIIPKPSEPARQPESHPEETEEELREHQALLDEPYLDRLPGQKEAHAQAGVQVKQEPIESDEEEAEPPREVEPGQRQPSEQELLFRQQALLLEQQRIHQLRNYQASMEAAGIPVSFGGHRPLSRAQSSPASATFPVSVQEPPTKPRFTTGLVYDTLMLKHQCTCGSSSSHPEHAGRIQSIWSRLQETGLRGKCECIRGRKATLEELQTVHSEAHTLLYGTNPLNRQKLDSKKLLGSLASVFVRLPCGGVGVDSDTIWNEVHSAGAARLAVGCVVELVFKVATGELKNGFAVVRPPGHHAEESTPMGFCYFNSVAVAAKLLQQRLSVSKILIVDWDVHHGNGTQQAFYSDPSVLYMSLHRYDDGNFFPGSGAPDEVGTGPGVGFNVNMAFTGGLDPPMGDAEYLAAFRTVVMPIASEFAPDVVLVSSGFDAVEGHPTPLGGYNLSARCFGYLTKQLMGLAGGRIVLALEGGHDLTAICDASEACVSALLGNELDPLPEKVLQQRPNANAVRSMEKVMEIHSKYWRCLQRTTSTAGRSLIEAQTCENEEAETVTAMASLSVGVKPAEKRPDEEPMEEEPPL | 7.6192 log2 | –
2 | – | 1.563 | DDX1 (protein, UniProt Q92499 1-740, looked up) ATP-dependent RNA helicase …: MAAFSEMGVMPEIAQAVEEMDWLLPTDIQAESIPLILGGGDVLMAAETGSGKTGAFSIPVIQIVYETLKDQQEGKKGKTTIKTGASVLNKWQMNPYDRGSAFAIGSDGLCCQSREVKEWHGCRATKGLMKGKHYYEVSCHDQGLCRVGWSTMQASLDLGTDKFGFGFGGTGKKSHNKQFDNYGEEFTMHDTIGCYLDIDKGHVKFSKNGKDLGLAFEIPPHMKNQALFPACVLKNAELKFNFGEEEFKFPPKDGFVALSKAPDGYIVKSQHSGNAQVTQTKFLPNAPKALIVEPSRELAEQTLNNIKQFKKYIDNPKLRELLIIGGVAARDQLSVLENGVDIVVGTPGRLDDLVSTGKLNLSQVRFLVLDEADGLLSQGYSDFINRMHNQIPQVTSDGKRLQVIVCSATLHSFDVKKLSEKIMHFPTWVDLKGEDSVPDTVHHVVVPVNPKTDRLWERLGKSHIRTDDVHAKDNTRPGANSPEMWSEAIKILKGEYAVRAIKEHKMDQAIIFCRTKIDCDNLEQYFIQQGGGPDKKGHQFSCVCLHGDRKPHERKQNLERFKKGDVRFLICTDVAARGIDIHGVPYVINVTLPDEKQNYVHRIGRVGRAERMGLAISLVATEKEKVWYHVCSSRGKGCYNTRLKEDGGCTIWYNEMQLLSEIEEHLNCTISQVEPDIKVPVDEFDGKVTYGQKRAAGGGSYKGHVDILAPTVQELAALEKEAQTSFLHLGYLPNQLFRTF | – | -0.009417
3 | – | 5.4303 | RNPC3 (protein, UniProt Q96LT9 1-517, looked up) RNA-binding region-containing …: MAAPEQPLAISRGCTSSSSLSPPRGDRTLLVRHLPAELTAEEKEDLLKYFGAQSVRVLSDKGRLKHTAFATFPNEKAAIKALTRLHQLKLLGHTLVVEFAKEQDRVHSPCPTSGSEKKKRSDDPVEDDKEKKELGYLTVENGIAPNHGLTFPLNSCLKYMYPPPSSTILANIVNALASVPKFYVQVLHLMNKMNLPTPFGPITARPPMYEDYMPLHAPLPPTSPQPPEEPPLPDEDEELSSEESEYESTDDEDRQRMNKLMELANLQPKRPKTIKQRHVRKKRKIKDMLNTPLCPSHSSLHPVLLPSDVFDQPQPVGNKRIEFHISTDMPAAFKKDLEKEQNCEEKNHDLPATEVDASNIGFGKIFPKPNLDITEEIKEDSDEMPSECISRRELEKGRISREEMETLSVFRSYEPGEPNCRIYVKNLAKHVQEKDLKYIFGRYVDFSSETQRIMFDIRLMKEGRMKGQAFIGLPNEKAAAKALKEANGYVLFGKPMVVQFARSARPKQDPKEGKRKC | – | -2.187
